In PMC2797707 (Journal of the American Chemical Society, 2009):

Key:
[1] = tested on: CsoR H61A (Mycobacterium tuberculosis); assay: fluorescence anisotropy; details: pH 7.0, 0.2 M NaCl, 2 mM DTT, 25 °C (buffer not stated in the material)
[2] = molecular target: the molecule itself

With cso operator DNA the Ka (M-1 (A2 (so in the source); ≤)) [1] was < 1e+10.

B1: H61A Mycobacterium tuberculosis CsoR (natural protein)
chain: MSKELTAKKRAALNRLKTVRGHLDGIVRMLESDAYCVDVMKQISAVQSSLERANRVMLHNALETCFSTAVLDGHGQAAIEELIDAVKFTPALTGPHARLGGAAVGESATEEPMPDASNM
For B1, the “stoichiometry N” value [2] was 4.
